From US20150344570A1 (published 2015)

T1: human FcγRIIb extracellular domain with C-terminal His tag (human, UniProt P31994 43-217)
T1 construct: extracellular domain; also called FcgRIIb; 2b; not shown: His tag attached to the C terminus
T1 sequence (looked up): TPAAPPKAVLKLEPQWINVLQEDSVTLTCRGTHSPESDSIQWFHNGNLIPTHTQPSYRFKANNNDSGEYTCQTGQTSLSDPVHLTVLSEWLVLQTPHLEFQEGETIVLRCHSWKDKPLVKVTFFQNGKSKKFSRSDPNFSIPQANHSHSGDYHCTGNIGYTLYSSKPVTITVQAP

B1: GpH7-B3 variant L328_03V/GpL16-k0 (Ho Ab) (antibody, human IgG1, kappa)
heavy: not shown
light: DIVMTQSPLSLPVTPGEPASISCQASESLVHSNRNTYLHWYLQKPGQSPQLLIYKVSNRFSGVPDRFSGSGSGTDFTLKISRVEAEDVGVYYCSQNTHVPPTFGQGTKVEIERTVAAPSVFIFPPSDEQLKSGTASVVCLLNNFYPREAKVQWKVDNALQSGNSQESVTEQDSKDSTYSLSSTLTLSKADYEKHKVYACEVTHQGLSSPVTKSFNRGEC
notes: Anti-glypican-3 IgG1; mutation in both H chains; also called L328V homodimerized antibody
B2: GpH7-B3 variant L328_06M/GpL16-k0 (Ho Ab) (antibody, human IgG1, kappa)
heavy: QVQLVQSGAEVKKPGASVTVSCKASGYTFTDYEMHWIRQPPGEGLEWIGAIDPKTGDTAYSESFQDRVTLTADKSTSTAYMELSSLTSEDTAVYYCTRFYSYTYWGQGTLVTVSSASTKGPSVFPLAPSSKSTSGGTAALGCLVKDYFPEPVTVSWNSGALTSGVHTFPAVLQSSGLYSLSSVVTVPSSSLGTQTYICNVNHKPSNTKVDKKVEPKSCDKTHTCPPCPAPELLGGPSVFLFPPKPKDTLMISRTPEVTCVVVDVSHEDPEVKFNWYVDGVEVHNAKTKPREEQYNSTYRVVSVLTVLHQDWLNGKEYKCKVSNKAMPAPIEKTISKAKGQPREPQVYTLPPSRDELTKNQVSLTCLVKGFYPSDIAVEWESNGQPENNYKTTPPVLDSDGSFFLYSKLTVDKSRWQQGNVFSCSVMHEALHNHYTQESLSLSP
light: B1 light
notes: Anti-glypican-3 IgG1; mutation in both H chains; also called L328M homodimerized antibody
B3: GpH7-B3 variant P331_04F/GpL16-k0 (Ho Ab) (antibody, human IgG1, kappa)
heavy: not shown
light: B1 light
notes: Anti-glypican-3 IgG1; mutation in both H chains; also called P331F homodimerized antibody
B4: GpH7-B3 variant L328_14T/GpL16-k0 (Ho Ab) (antibody, human IgG1, kappa)
heavy: not shown
light: B1 light
notes: Anti-glypican-3 IgG1; mutation in both H chains; also called L328T homodimerized antibody
B5: GpH7-B3 variant L328_19Q/GpL16-k0 (Ho Ab) (antibody, human IgG1, kappa)
heavy: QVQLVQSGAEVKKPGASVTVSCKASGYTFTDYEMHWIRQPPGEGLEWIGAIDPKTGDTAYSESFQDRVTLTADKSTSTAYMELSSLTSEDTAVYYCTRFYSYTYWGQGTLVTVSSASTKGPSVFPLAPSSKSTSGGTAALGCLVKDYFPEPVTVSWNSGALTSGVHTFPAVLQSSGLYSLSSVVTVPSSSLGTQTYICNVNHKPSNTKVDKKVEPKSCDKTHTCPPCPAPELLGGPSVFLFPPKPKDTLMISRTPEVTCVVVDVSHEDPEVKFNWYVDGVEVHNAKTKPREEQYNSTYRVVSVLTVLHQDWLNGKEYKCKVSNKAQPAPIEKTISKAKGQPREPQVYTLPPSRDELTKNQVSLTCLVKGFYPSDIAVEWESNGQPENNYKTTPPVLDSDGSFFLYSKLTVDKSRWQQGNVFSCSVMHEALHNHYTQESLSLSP
light: B1 light
notes: Anti-glypican-3 IgG1; mutation in both H chains; also called L328Q homodimerized antibody
B6: GpH7-B3 variant S239_01G/GpL16-k0 (Ho Ab) (antibody, human IgG1, kappa)
heavy: not shown
light: B1 light
notes: Anti-glypican-3 IgG1; mutation in both H chains; also called S239G homodimerized antibody
B7: GpH7-B3 variant S239_08L/GpL16-k0 (Ho Ab) (antibody, human IgG1, kappa)
heavy: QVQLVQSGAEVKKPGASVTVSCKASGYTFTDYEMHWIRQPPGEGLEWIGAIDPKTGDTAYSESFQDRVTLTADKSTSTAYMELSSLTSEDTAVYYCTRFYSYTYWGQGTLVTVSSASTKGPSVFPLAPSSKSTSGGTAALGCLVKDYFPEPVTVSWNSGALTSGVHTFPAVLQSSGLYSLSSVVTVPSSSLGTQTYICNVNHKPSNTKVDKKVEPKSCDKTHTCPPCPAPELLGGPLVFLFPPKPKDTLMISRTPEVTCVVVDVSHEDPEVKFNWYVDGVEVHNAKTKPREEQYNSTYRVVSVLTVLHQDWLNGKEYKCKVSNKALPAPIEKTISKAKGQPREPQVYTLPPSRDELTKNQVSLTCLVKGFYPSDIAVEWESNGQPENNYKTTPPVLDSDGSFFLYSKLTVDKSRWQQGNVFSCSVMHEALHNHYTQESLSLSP
light: B1 light
notes: Anti-glypican-3 IgG1; mutation in both H chains; also called S239L homodimerized antibody
B8: GpH7-B3 variant P238_08L/GpL16-k0 (Ho Ab) (antibody, human IgG1, kappa)
heavy: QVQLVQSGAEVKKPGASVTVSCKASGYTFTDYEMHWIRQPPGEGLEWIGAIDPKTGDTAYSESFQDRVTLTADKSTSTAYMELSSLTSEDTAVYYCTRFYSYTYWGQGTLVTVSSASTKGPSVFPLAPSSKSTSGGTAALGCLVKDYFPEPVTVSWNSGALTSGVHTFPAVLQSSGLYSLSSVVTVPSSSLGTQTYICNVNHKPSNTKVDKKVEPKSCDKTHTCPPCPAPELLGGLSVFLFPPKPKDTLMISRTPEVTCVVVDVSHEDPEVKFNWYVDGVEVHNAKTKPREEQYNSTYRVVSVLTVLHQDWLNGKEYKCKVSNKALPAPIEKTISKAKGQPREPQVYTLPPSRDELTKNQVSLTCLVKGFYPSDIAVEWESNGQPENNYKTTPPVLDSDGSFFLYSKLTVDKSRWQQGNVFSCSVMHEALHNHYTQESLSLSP
light: B1 light
notes: Anti-glypican-3 IgG1; mutation in both H chains; also called P238L homodimerized antibody
B9: GpH7-B3 variant S267_07I/GpL16-k0 (Ho Ab) (antibody, human IgG1, kappa)
heavy: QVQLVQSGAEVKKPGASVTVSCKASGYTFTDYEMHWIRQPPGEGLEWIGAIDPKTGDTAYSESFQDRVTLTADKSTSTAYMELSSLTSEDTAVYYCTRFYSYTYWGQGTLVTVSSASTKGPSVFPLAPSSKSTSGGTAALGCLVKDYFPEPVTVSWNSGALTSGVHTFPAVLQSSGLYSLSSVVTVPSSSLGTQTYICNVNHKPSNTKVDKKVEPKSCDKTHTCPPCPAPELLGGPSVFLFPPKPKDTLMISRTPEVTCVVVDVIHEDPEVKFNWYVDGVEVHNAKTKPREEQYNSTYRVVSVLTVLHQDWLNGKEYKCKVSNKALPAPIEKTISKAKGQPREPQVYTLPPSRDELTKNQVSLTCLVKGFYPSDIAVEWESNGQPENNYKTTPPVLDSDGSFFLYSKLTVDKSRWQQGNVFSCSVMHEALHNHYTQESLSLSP
light: B1 light
notes: Anti-glypican-3 IgG1; mutation in both H chains; also called S267I homodimerized antibody
B10: GpH7-B3 variant L328_07I/GpL16-k0 (Ho Ab) (antibody, human IgG1, kappa)
heavy: not shown
light: B1 light
notes: Anti-glypican-3 IgG1; mutation in both H chains; also called L328I homodimerized antibody
B11: GpH7-B3 variant L328_04F/GpL16-k0 (Ho Ab) (antibody, human IgG1, kappa)
heavy: not shown
light: B1 light
notes: Anti-glypican-3 IgG1; mutation in both H chains; also called L328F homodimerized antibody
B12: GpH7-B3 variant S267_03V/GpL16-k0 (Ho Ab) (antibody, human IgG1, kappa)
heavy: not shown
light: B1 light
notes: Anti-glypican-3 IgG1; mutation in both H chains; also called S267V homodimerized antibody
B13: GpH7-B3 variant P271_01G/GpL16-k0 (Ho Ab) (antibody, human IgG1, kappa)
heavy: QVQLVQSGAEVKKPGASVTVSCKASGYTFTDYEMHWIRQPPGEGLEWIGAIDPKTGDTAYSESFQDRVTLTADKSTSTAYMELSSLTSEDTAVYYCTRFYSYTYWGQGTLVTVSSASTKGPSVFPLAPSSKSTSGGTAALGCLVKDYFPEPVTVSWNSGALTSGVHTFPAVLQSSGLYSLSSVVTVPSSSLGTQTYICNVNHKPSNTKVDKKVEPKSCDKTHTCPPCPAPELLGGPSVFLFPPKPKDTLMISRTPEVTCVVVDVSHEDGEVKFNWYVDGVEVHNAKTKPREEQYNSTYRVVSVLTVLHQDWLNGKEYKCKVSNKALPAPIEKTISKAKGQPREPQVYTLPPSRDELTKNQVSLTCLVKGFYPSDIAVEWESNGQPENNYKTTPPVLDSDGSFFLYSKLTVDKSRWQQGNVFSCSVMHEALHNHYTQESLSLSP
light: B1 light
notes: Anti-glypican-3 IgG1; mutation in both H chains; also called P271G homodimerized antibody
B14: GpH7-B3 variant S267_14T/GpL16-k0 (Ho Ab) (antibody, human IgG1, kappa)
heavy: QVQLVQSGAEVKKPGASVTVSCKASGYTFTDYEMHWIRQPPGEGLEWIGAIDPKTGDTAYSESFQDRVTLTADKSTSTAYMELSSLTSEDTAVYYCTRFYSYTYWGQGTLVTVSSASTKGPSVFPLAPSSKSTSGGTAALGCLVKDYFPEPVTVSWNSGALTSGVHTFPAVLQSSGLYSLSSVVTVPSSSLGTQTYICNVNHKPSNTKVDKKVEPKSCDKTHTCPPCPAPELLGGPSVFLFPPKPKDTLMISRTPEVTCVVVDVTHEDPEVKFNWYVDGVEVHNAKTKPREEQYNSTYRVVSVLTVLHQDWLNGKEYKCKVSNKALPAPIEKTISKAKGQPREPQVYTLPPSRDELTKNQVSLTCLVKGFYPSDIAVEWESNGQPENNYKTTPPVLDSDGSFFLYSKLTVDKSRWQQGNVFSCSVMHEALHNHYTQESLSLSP
light: B1 light
notes: Anti-glypican-3 IgG1; mutation in both H chains; also called S267T homodimerized antibody
B15: GpH7-B3 variant P271_08L/GpL16-k0 (Ho Ab) (antibody, human IgG1, kappa)
heavy: not shown
light: B1 light
notes: Anti-glypican-3 IgG1; mutation in both H chains; also called P271L homodimerized antibody
B16: GpH7-B3 variant K334_15Y/GpL16-k0 (Ho Ab) (antibody, human IgG1, kappa)
heavy: not shown
light: B1 light
notes: Anti-glypican-3 IgG1; mutation in both H chains; also called K334Y homodimerized antibody
B17: GpH7-B3 variant K334_16H/GpL16-k0 (Ho Ab) (antibody, human IgG1, kappa)
heavy: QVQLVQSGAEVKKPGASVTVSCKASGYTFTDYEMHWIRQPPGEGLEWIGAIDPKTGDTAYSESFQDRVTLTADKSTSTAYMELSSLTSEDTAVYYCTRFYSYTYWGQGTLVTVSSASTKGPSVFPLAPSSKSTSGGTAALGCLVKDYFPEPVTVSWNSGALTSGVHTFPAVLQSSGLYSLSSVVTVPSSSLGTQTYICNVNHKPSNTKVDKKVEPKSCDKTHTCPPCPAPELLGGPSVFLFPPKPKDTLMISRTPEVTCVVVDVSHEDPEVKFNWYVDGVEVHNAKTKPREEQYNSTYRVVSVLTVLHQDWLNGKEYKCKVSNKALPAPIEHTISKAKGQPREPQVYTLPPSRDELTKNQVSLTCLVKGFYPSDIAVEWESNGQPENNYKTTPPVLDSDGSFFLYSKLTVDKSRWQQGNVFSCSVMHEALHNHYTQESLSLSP
light: B1 light
notes: Anti-glypican-3 IgG1; mutation in both H chains; also called K334H homodimerized antibody
B18: GpH7-B3 variant S267_08L/GpL16-k0 (Ho Ab) (antibody, human IgG1, kappa)
heavy: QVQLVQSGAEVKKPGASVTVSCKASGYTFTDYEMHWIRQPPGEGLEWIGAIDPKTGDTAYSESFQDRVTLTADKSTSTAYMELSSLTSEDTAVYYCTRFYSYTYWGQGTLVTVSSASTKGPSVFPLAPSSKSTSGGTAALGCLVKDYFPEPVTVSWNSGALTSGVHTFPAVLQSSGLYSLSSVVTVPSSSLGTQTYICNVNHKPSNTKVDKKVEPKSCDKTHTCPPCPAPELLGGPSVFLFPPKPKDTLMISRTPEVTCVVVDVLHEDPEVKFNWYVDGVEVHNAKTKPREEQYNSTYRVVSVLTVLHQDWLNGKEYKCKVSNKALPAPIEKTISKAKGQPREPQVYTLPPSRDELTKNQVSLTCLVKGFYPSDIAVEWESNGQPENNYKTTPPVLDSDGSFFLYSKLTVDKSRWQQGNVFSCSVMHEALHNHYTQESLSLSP
light: B1 light
notes: Anti-glypican-3 IgG1; mutation in both H chains; also called S267L homodimerized antibody
B19: GpH7-B3 variant L328_15Y/GpL16-k0 (Ho Ab) (antibody, human IgG1, kappa)
heavy: not shown
light: B1 light
notes: Anti-glypican-3 IgG1; mutation in both H chains; also called L328Y homodimerized antibody
B20: GpH7-B3 variant S267_02A/GpL16-k0 (Ho Ab) (antibody, human IgG1, kappa)
heavy: not shown
light: B1 light
notes: Anti-glypican-3 IgG1; mutation in both H chains; also called S267A homodimerized antibody
B21: GpH7-B3 variant K334_18N/GpL16-k0 (Ho Ab) (antibody, human IgG1, kappa)
heavy: not shown
light: B1 light
notes: Anti-glypican-3 IgG1; mutation in both H chains; also called K334N homodimerized antibody
B22: GpH7-B3 variant S239_07I/GpL16-k0 (Ho Ab) (antibody, human IgG1, kappa)
heavy: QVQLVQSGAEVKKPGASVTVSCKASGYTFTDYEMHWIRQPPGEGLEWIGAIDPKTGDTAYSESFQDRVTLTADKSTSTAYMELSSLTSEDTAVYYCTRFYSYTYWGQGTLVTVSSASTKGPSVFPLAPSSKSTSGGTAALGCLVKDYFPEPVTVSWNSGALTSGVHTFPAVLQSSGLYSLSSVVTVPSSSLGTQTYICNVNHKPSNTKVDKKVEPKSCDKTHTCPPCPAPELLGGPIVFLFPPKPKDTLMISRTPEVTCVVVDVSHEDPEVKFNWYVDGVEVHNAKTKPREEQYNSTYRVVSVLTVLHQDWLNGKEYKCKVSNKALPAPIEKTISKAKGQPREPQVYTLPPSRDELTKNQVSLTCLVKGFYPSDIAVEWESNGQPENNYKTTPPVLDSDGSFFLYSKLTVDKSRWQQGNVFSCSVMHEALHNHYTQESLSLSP
light: B1 light
notes: Anti-glypican-3 IgG1; mutation in both H chains; also called S239I homodimerized antibody
B23: GpH7-B3 variant S239_09D/GpL16-k0 (Ho Ab) (antibody, human IgG1, kappa)
heavy: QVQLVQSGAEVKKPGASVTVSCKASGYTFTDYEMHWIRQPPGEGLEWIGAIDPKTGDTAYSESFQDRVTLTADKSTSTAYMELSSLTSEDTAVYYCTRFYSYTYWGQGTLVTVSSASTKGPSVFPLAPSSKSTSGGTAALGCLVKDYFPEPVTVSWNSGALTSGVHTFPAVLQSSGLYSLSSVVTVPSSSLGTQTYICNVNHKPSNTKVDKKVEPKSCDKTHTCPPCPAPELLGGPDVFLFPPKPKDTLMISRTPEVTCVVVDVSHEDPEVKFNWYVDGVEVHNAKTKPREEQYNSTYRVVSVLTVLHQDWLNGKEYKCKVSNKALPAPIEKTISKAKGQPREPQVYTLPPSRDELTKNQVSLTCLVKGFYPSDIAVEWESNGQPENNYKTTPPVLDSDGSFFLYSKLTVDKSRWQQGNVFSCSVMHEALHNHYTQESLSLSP
light: B1 light
notes: Anti-glypican-3 IgG1; mutation in both H chains; also called S239D homodimerized antibody

target: T1, human FcγRIIb extracellular domain with …; test: SPR (Biacore T100), antibody captured on antigen peptide chip, FcγRIIb as analyte; relative binding
Method: Analysis of interaction between objective antibody and the FcγR was carried out using Biacore T100 (GE Healthcare). HBS-EP+ (GE Healthcare) was used as the running buffer, and the measurement temperature was set to 25° C. Chips produced by immobilizing the antigen peptide by the amine coupling method to a Series S Sencor Chip CM5 (GE Healthcare), or alternatively, chips produced by allowing preliminarily biotinylated antigen peptides to interact with and immobilize onto a Series S Sensor Chip SA (certified) (GE Healthcare) were used. Antibodies of interest were captured onto an antigen peptide-immobilized chip, and allowed to interact to each FcγR diluted with running buffer. To regenerate and repeatedly use the chip, the antibodies captured on the chip were washed off by reacting 10 mM glycine-HCl, pH 1.5.

| Ho/Con_2b | Binder |
| --- | --- |
| 135 % of control GpH7-B3/GpL16-k0 (=100) | B1 |
| 171 % of control GpH7-B3/GpL16-k0 (=100) | B2 |
| 113 % of control GpH7-B3/GpL16-k0 (=100) | B3 |
| 146 % of control GpH7-B3/GpL16-k0 (=100) | B4 |
| 111 % of control GpH7-B3/GpL16-k0 (=100) | B5 |
| 174 % of control GpH7-B3/GpL16-k0 (=100) | B6 |
| 142 % of control GpH7-B3/GpL16-k0 (=100) | B7 |
| 235 % of control GpH7-B3/GpL16-k0 (=100) | B8 |
| 213 % of control GpH7-B3/GpL16-k0 (=100) | B9 |
| 188 % of control GpH7-B3/GpL16-k0 (=100) | B10 |
| 241 % of control GpH7-B3/GpL16-k0 (=100) | B11 |
| 206 % of control GpH7-B3/GpL16-k0 (=100) | B12 |
| 229 % of control GpH7-B3/GpL16-k0 (=100) | B13 |
| 106 % of control GpH7-B3/GpL16-k0 (=100) | B14 |
| 113 % of control GpH7-B3/GpL16-k0 (=100) | B15 |
| 126 % of control GpH7-B3/GpL16-k0 (=100) | B16 |
| 124 % of control GpH7-B3/GpL16-k0 (=100) | B17 |
| 109 % of control GpH7-B3/GpL16-k0 (=100) | B18 |
| 272 % of control GpH7-B3/GpL16-k0 (=100) | B19 |
| 274 % of control GpH7-B3/GpL16-k0 (=100) | B20 |
| 128 % of control GpH7-B3/GpL16-k0 (=100) | B21 |
| 108 % of control GpH7-B3/GpL16-k0 (=100) | B22 |
| 224 % of control GpH7-B3/GpL16-k0 (=100) | B23 |
